Measurements taken from patent US20150266963A1 (ARGEN X B V, published 2015).
Changes are numbered by the printed parent chain.

T1: recombinant human CD70 (Flag-TNC-CD70) (human, UniProt P32970 39-193)
T1 construct: extracellular domain; Captured by anti-Flag mAb in ELISA; as 'recombinant human CD70' immobilised on Biacore CM5 chips; TNC is for trimerisation; also called recombinant CD70; human recombinant CD70; not shown: Flag tag and TNC trimerisation domain
T1 sequence (looked up): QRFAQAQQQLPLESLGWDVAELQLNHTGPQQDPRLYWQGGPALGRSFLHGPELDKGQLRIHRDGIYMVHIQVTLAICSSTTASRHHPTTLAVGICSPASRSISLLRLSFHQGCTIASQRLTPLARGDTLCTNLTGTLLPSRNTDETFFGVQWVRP

B1: 41D12 Fab (Fab, V domains shown)
VH: EVQLVESGGGLVQPGGSLRLSCAASGFTFSVYYMNWVRQAPGKGLEWVSDINNEGGTTYYADSVKGRFTISRDNSKNSLYLQMNSLRAEDTAVYYCARDAGYSNHVPIFDSWGQGTLVTVSS
VL: QAVVTQEPSLTVSPGGTVTLTCGLKSGSVTSDNFPTWYQQTPGQAPRLLIYNTNTRHSGVPDRFSGSILGNKAALTITGAQADDEAEYFCALFISNPSVEFGGGTQLTVLG
notes: Germlined 27B3 Fab, periplasmic fraction
B2: 36G2 Fab (Fab, V domains shown)
VH: B1 VH with S75A, Y80T, A97V, L117Q
VL: B1 VL with A82P, D83E, A86S, E87D, F89Y
notes: as for B1
B3: 35G1 Fab (Fab, V domains shown)
VH: B1 VH with L18V, S75A, S78T, R87K, A88P, S121A
VL: B1 VL with A2T, L10F, T11S, T55S, A86S, E87D
notes: as for B1
B4: 35G2 Fab (Fab, V domains shown)
VH: B1 VH with S75A, S78T, R87K, A88P
VL: B1 VL with A2T, L10F, T11S, D32T, T55S, E87D
notes: as for B1
B5: 36D6 Fab (Fab, V domains shown)
VH: B1 VH with S75A, S78T, R87K, A88P, V93L, A97V, L117T
VL: B1 VL with A2T, D32T, T55S, A86S, E87D
notes: as for B1
B6: 35G3 Fab (Fab, V domains shown)
VH: B1 VH with Y80T, R87K, A88P
VL: B1 VL with L10F, T11S, T55S, T78R, F89Y
notes: as for B1
B7: 36A9 Fab (Fab, V domains shown)
VH: B1 VH with S78T, Y80T, R87K, A88P, A97V, L117Q, T119I
VL: B1 VL with A2T, L10F, T11S, A86S, E87D
notes: as for B1
B8: 33D8 Fab (Fab, V domains shown)
VH: B1 VH with S75A, S78T, Y80T, R87K, A88P, V93L, A97V, L117Q, T119I, S121A
VL: QSALTQPSTVSVSLGQTARITCRGDSLERYGTNWYQQKPGQAPVLVIYDDDSRPSGIPERFSGSSSGATAALTISGAQAEDEGDYYCQSADSSGNAVFGGGTHLTVLG
notes: Llama-derived Fab
B9: 24E3 Fab (Fab, V domains shown)
VH: B1 VH with S75A, S78T, Y80T, R87K, A88P, V93L, A97V, L117Q, T119I, S121A
VL: QAVVTQEPSLSVSPGGTVTLTCGLTSGSVTSDNFPVWYQQTPGQAPRLLIYTINSRHSGVPSRFSGSITGNKAILTITGAQPEDEADYYCALYLENFANEFGGGTRLTVLG
notes: Llama-derived Fab
B10: 59D10 Fab (Fab, V domains shown)
VH: EVQLVESGGGLVQPGGSLRLSCAASELSFSISEMTWVRQAPGKGLEWVSGISGVTGGSSTSYADSVKGRFTISRDNDKNTLYLQMNSLIPEDTAVYYCATTSGTYYFIPEYEYWGQGTQVTVSS
VL: QSVLTQPPSVSGSPGKTVTISCAGTSSDVGYGYYVSWYQQFPGMAPKLLIYDVNKRASGIADRFSGSKAGNTASLTISGLQSEDEADYYCASYRSSANAVFGGGTHLTVLG
notes: Llama-derived Fab
B11: 8B12 Fab (Fab, V domains shown)
VH: EVQLVESGGGLVQPGGSLRLSCAASGFTFSVYYMNWVRQAPGKGLEWVSDINNEGDTTYYADSVKGRFTISRDNAKNTLTLQMDSLKPEDTALYYCVRDAGYSNHVPIFDSWGQGTQVIVAS
VL: QTVVTQEPSLSVSPGGTVTLTCGLSSGSVTSSNYPGWYQQTPGQAPRVLIYNTNNRHSGVPSRYSGSISGNKAALTITGAEPEDEADYYCNLHLGSYTPMFGGGTKLTVLG
notes: Llama-derived Fab
B12: 45B12 Fab (Fab, V domains shown)
VH: B11 VH with V31A, V48I, D56Y, T57E, L93R, P107Q
VL: QAVLTQPSSVSVSLGQTAKITCQGGNLGLYGANWYQQNPGRAPILLIYGDNYRPLGIPERFTISKSGGTATLTIDGAQAEDESDYYCQSADYSGNSVFGGGTKLTVLG
notes: Llama-derived Fab
B13: 45D9 Fab (Fab, V domains shown)
VH: B11 VH with V31A, V48I, D56Y, T57E, L93R, P107Q
VL: B12 VL with G28W, Y52Q
notes: Llama-derived Fab
B14: 45F8 Fab (Fab, V domains shown)
VH: B11 VH with V31A, V48I, D56Y, T57E, L93R, P107Q
VL: B12 VL with K19N, I47F, R53M, D81N, A90S, S93P
notes: Llama-derived Fab

The binders below were run against T1, recombinant human CD70 (Flag-TNC-CD70) (assay: Biacore; CD70 coated CM5 chip; Fab in periplasmic fraction).
Procedure: Phage eluted from rounds 3, 4 and 5 of selection were transfected into TG1 and plated clonally; individual clones were picked randomly for further analysis. Periplasmic fractions containing Fabs were prepared from IPTG induced small scale cultures the off rate of each Fab was determined using a CD70 coated CM5 chip in a Biacore binding assay. Clones with Fab having off rates similar to that of 27B3 were sequenced.

koff [s⁻¹] | Binder
0.00023 | B1
0.00011 | B2
0.00023 | B3
0.00017 | B4
0.00014 | B5
0.00017 | B6
0.00013 | B7

What follows are binders tested against T1, recombinant human CD70 (Flag-TNC-CD70) (assay: Biacore; recombinant human CD70 on CM5 chip; Fab injected).
Procedure: Off-rates of the purified llama-derived anti-CD70 blocking Fabs were determined using the Biacore. Recombinant human CD70 was immobilized on a CM5 Biacore chip. The immobilization was performed in accordance with a method provided by Biacore and by using the NHS/EDC kit (Biacore AB): after activation of the chip, a solution of 50 μg/ml of recombinant CD70 in 10 mM acetate buffer with pH of 5 was prepared and 1 μl of this solution (50ng) was injected resulting in a surface density of approximately 1000 RU.
Fabs for the CD70 mAbs ARGX-110, MDX2H5 and SGN70 were prepared by […] digestion (SGN70 and MDX69A7 are described elsewhere herein, MDX2H5, also referred to as MDX1411, is described in WO2008/074004 FIGS. 1A and 1B). Fabs, at a concentration of approximately 100-400 μg/ml, were diluted 6-fold in hepes-buffered saline (0.1M Hepes, 1.5M NaCl, 30 mM EDTA, 0.5% v/v surfactant P20). They were injected (30 μl) and passed through the flow cells at a flow rate of 30 μl/min. After binding of the Fab to CD70, the off-rate was monitored for a period of 10 minutes. After the dissociation, the flow cell surfaces were regenerated by injecting 5 μl of 10 mM NaOH. Sometimes multiple injections of NaOH were needed to regenerate the surfaces depending on the affinity of the Fabs. Off-rate analysis was done by applying the BIAevaluation software. First, the sensogram of the blank runs were subtracted from those obtained with the coated flow cell. […] Moreover, the off-rate of CD27 for CD70 was determined as well.

koff [s⁻¹] | Binder
0.00045 | B8
8e-05 | B9
0.00139 | B10
0.00036 | B11
0.00021 | B12
0.00021 | B13
0.0002 | B14
